Values belong to the binder of their own block, whether it stands above or below them.
Columns and labels:
[1] = biological target: T1, human IGF2^1-67 (mature insulin-like growth factor 2) (human, UniProt P01344 25-91, biotinylated (site not stated) where immobilised on the chip (Tables 1-4)); assay: SPR steady state, biotin-IGF2 on chip, pH 7.4
T1 construct: mature; also called mature IGF2; biotinylated IGF2
Description: (§1) Final kinetic analysis of mutants by SPR was conducted using a Biacore T200 biosensor at 25° C. in either HBS-EP (10 mM HEPES pH 7.4, 150 mM NaCl, 3 mM EDTA, and 0.005% (v/v) surfactant P20) or MES-EP (20 mM MES pH 6.5, 150 mM NaCl, 3 mM EDTA, and 0.005% (v/v) surfactant P20) at a flow-rate of 40 μL min⁻¹. […] For the analysis of the Fc-domain 11^AB5 interaction, approximately 50 RU of a biotinylated IGF2:biotinylated ubiquitin mixture (1:8 proportion) was immobilized on the CM5-streptavidin chip. This interaction was also analysed by immobilizing the Fc-domain 11^AB5 and Fc-domain 11^AB5-RHH (or Fc-domain 11^I1572A as control) by Human Antibody Capture (monoclonal mouse anti-human IgG antibody immobilised on a CM5 chip by amine coupling, GE Healthcare) with and without human IgG1 Fc fragment (Bethyl Laboratories, UK) in the control flow cell. […] T200 BiaEvaluation software (GE Healthcare) was used to fit the resulting curves according to a 1:1 binding model. Steady state affinities were determined using the kinetic data, taking the response average at 5 seconds before injection end and for 5 seconds average. Thermodynamic data was performed across the temperature range of 10° C. to 30° C., van't Hoff and Erying plots generated and ΔH, −TΔS and ΔG values determined as previously described.

[2] = biological target: T1, human IGF2^1-67 (mature insulin-like …); assay: SPR
Excerpt: (§2) Surface plasmon resonance (SPR) binding analysis of recombinant M6P/IGF2R domain 11 mutants interaction with IGF2. Kon indicates association (on) rate; koff, dissociation (off) rate; RU, response units. Binding to IGF2 assessed with BIAcore T200 using purified biotinylated IGF2 and IGF1 on a streptavidin biosensor chip. Recombinant proteins were expressed either in E. coli and/or P. pastoris. All the mutants in the FG and CD loops are on the domain 11^AB5 background for the AB loop unless otherwise stated. All experiments were carried out at 25° C. in HBS-EP buffer (pH 7.4), were repeated 2-5 times on two independent BIAcore chips. nd=not determined. Data for KD expressed as mean of each experiment, and means of kon and koff are shown.
as §1, with “model.” for “model. Steady state affinities were determined using the kinetic data, taking the response average at 5 seconds before injection end and for 5 seconds average. Thermodynamic data was performed across the temperature range of 10° C. to 30° C., van't Hoff and Erying plots generated and ΔH, −TΔS and ΔG values determined as previously described.”

[3] = biological target: T1, human IGF2^1-67 (mature insulin-like …); assay: SPR kinetic, biotin-IGF2 on chip, pH 7.4
Description: as §1

[4] = biological target: T1, human IGF2^1-67 (mature insulin-like …); assay: SPR steady state, biotin-IGF2 on chip
Description: as §1

[5] = biological target: T1, human IGF2^1-67 (mature insulin-like …); assay: SPR kinetic, biotin-IGF2 on chip
Description: as §1

[6] = biological target: T1, human IGF2^1-67 (mature insulin-like …); assay: SPR kinetic, biotin-IGF2 on chip, pH 7.4; remark: listed apart in the source
Excerpt: as §2
as §1, with “average.” for “average. Thermodynamic data was performed across the temperature range of 10° C. to 30° C., van't Hoff and Erying plots generated and ΔH, −TΔS and ΔG values determined as previously described.”

[7] = biological target: T1, human IGF2^1-67 (mature insulin-like …); assay: SPR steady state, biotin-IGF2 on chip, pH 7.4; remark: listed apart in the source
Excerpt: as §2
as §1, with “average.” for “average. Thermodynamic data was performed across the temperature range of 10° C. to 30° C., van't Hoff and Erying plots generated and ΔH, −TΔS and ΔG values determined as previously described.”

T1 sequence (P01344 25-91): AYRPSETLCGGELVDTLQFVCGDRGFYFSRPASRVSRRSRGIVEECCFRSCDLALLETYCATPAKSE

B1: domain 11^AB3 P1597K (receptor)
chain: MKSNEHDDCQVTNPSTGHLFDLSSLSGRAGFTAAYSKSGVVYMSICGENENCPPGVGACFGQTRISVGKANKRLRYVDQVLQLVYKDGSKCPSKSGLSYKSVISFVCRPEAGPTNRPMLISLDKQTCTLFFSWHTPLACEQATECSV
notes: See m5
Kd [1]: 3.59 nM | fold change of KD against domain 11^AB3 [2]: 6 fold | fold reduction of koff against domain 11^AB3 [2]: 2 fold | Kd [3]: 2.78 nM | koff [3]: 0.0287 s⁻¹ | kon [3]: 1.05e+07 M⁻¹ s⁻¹

B2: domain 11^AB5 + 51F (HI-NRQS) (receptor)
chain: MKSNEHDDCQVTNPSTGHLFDLSSLSGRAGFTAAYAKGWGVYMSICGENENCPPGVGACFGQTRISVGKANKRLRYVDQVLQLVYKDGSPCPSKSGLSYKSVISFVCRPEAGPTNRPMLISLNRQSCTLFFSWHTPLACEQATECSV
notes: See m5; Protein quality poor
Kd [4]: 6.94 nM | Kd [5]: 13.5 nM | koff [5]: 0.1 s⁻¹ | kon [5]: 7.4e+06 M⁻¹ s⁻¹

B4: domain 11^AB5 P1597Q (receptor)
chain: MKSNEHDDCQVTNPSTGHLFDLSSLSGRAGFTAAYAKGWGVYMSICGENENCPPGVGACFGQTRISVGKANKRLRYVDQVLQLVYKDGSQCPSKSGLSYKSVISFVCRPEAGPTNRPMLISLDKQTCTLFFSWHTPLACEQATECSV
notes: See m5
Kd [1]: 4.51 nM | Kd [3]: 3.83 nM | koff [3]: 0.0203 s⁻¹ | kon [3]: 6.53e+06 M⁻¹ s⁻¹

B7: domain 11^AB5 K1601R (receptor)
chain: MKSNEHDDCQVTNPSTGHLFDLSSLSGRAGFTAAYAKGWGVYMSICGENENCPPGVGACFGQTRISVGKANKRLRYVDQVLQLVYKDGSPCPSRSGLSYKSVISFVCRPEAGPTNRPMLISLDKQTCTLFFSWHTPLACEQATECSV
notes: See m5
fold improvement of affinity [2]: ≤ 2 fold | Kd [6]: 4.75 nM | koff [6]: 0.0251 s⁻¹ | kon [6]: 5.28e+06 M⁻¹ s⁻¹ | Kd [7]: 5.78 nM

B10: domain 11^AB5 P1597N (receptor)
chain: MKSNEHDDCQVTNPSTGHLFDLSSLSGRAGFTAAYAKGWGVYMSICGENENCPPGVGACFGQTRISVGKANKRLRYVDQVLQLVYKDGSNCPSKSGLSYKSVISFVCRPEAGPTNRPMLISLDKQTCTLFFSWHTPLACEQATECSV
notes: See m5
Kd [1]: 5.36 nM | Kd [3]: 4.13 nM | koff [3]: 0.018 s⁻¹ | kon [3]: 4.72e+06 M⁻¹ s⁻¹

B11: domain 11^WT + 27G (HI-NMAL) (receptor)
chain: MKSNEHDDCQVTNPSTGHLFDLSSLSGRAGFTAAYSEKGLVYMSICGENENCPPGVGACFGQTRISVGKANKRLRYVDQVLQLVYKDGSPCPSKSGLSYKSVISFVCRPEAGPTNRPMLISLNMALCTLFFSWHTPLACEQATECSV
notes: See m5; Protein quality poor
Kd [4]: 194 nM | Kd [5]: 195 nM | koff [5]: 0.25 s⁻¹ | kon [5]: 2e+06 M⁻¹ s⁻¹

B12: domain 11^AB5 Q1569R P1597K S1602H (receptor)
chain: MKSNEHDDCQVTNPSTGHLFDLSSLSGRAGFTAAYAKGWGVYMSICGENENCPPGVGACFGRTRISVGKANKRLRYVDQVLQLVYKDGSKCPSKHGLSYKSVISFVCRPEAGPTNRPMLISLDKQTCTLFFSWHTPLACEQATECSV
notes: See m5
Kd [1]: 2.11 nM | Kd [3]: 0.92 nM | koff [3]: 0.0073 s⁻¹ | kon [3]: 7.87e+06 M⁻¹ s⁻¹

B13: domain 11^AB5 S1602Q (receptor)
chain: MKSNEHDDCQVTNPSTGHLFDLSSLSGRAGFTAAYAKGWGVYMSICGENENCPPGVGACFGQTRISVGKANKRLRYVDQVLQLVYKDGSPCPSKQGLSYKSVISFVCRPEAGPTNRPMLISLDKQTCTLFFSWHTPLACEQATECSV
notes: See m5
fold improvement of affinity [2]: ≤ 2 fold | Kd [6]: 3.61 nM | koff [6]: 0.0191 s⁻¹ | kon [6]: 5.88e+06 M⁻¹ s⁻¹ | Kd [7]: 5.11 nM

Now from value to binder:

Kd [1]: 1.69 nM | Kd [3]: 0.95 nM | koff [3]: 0.0091 s⁻¹ | kon [3]: 9.59e+06 M⁻¹ s⁻¹
B3: domain 11^AB5 Q1569R P1597K (receptor)
chain: MKSNEHDDCQVTNPSTGHLFDLSSLSGRAGFTAAYAKGWGVYMSICGENENCPPGVGACFGRTRISVGKANKRLRYVDQVLQLVYKDGSKCPSKSGLSYKSVISFVCRPEAGPTNRPMLISLDKQTCTLFFSWHTPLACEQATECSV
notes: See m5

Kd [4]: 220 nM | Kd [5]: 176 nM | koff [5]: 0.065 s⁻¹ | kon [5]: 250000 M⁻¹ s⁻¹
B5: domain 11^WT + 23D (HI-HFQS) (receptor)
chain: MKSNEHDDCQVTNPSTGHLFDLSSLSGRAGFTAAYSEKGLVYMSICGENENCPPGVGACFGQTRISVGKANKRLRYVDQVLQLVYKDGSPCPSKSGLSYKSVISFVCRPEAGPTNRPMLISLHFQSCTLFFSWHTPLACEQATECSV
notes: See m5; Protein quality poor based on absorption spectra

Kd [1]: 1.95 nM | Kd [3]: 1.02 nM | koff [3]: 0.0115 s⁻¹ | kon [3]: 1.12e+07 M⁻¹ s⁻¹
B6: domain 11^AB5 Q1569R P1597H K1631W (receptor)
chain: MKSNEHDDCQVTNPSTGHLFDLSSLSGRAGFTAAYAKGWGVYMSICGENENCPPGVGACFGRTRISVGKANKRLRYVDQVLQLVYKDGSHCPSKSGLSYKSVISFVCRPEAGPTNRPMLISLDWQTCTLFFSWHTPLACEQATECSV
notes: See m5

Kd [4]: 127 nM | Kd [5]: 130 nM | koff [5]: 0.24 s⁻¹ | kon [5]: 1.89e+06 M⁻¹ s⁻¹
B8: domain 11^WT + 26C (HI-DMQT) (receptor)
chain: MKSNEHDDCQVTNPSTGHLFDLSSLSGRAGFTAAYSEKGLVYMSICGENENCPPGVGACFGQTRISVGKANKRLRYVDQVLQLVYKDGSPCPSKSGLSYKSVISFVCRPEAGPTNRPMLISLDMQTCTLFFSWHTPLACEQATECSV
notes: See m5; Protein quality poor

fold reduction of koff [2]: 2 fold | Kd [6]: 4.35 nM | koff [6]: 0.018 s⁻¹ | kon [6]: 4.5e+06 M⁻¹ s⁻¹ | Kd [7]: 5 nM
B9: domain 11^AB5 W1546F (receptor)
chain: MKSNEHDDCQVTNPSTGHLFDLSSLSGRAGFTAAYAKGFGVYMSICGENENCPPGVGACFGQTRISVGKANKRLRYVDQVLQLVYKDGSPCPSKSGLSYKSVISFVCRPEAGPTNRPMLISLDKQTCTLFFSWHTPLACEQATECSV
notes: See m5

Kd [1]: 4.9 nM | Kd [3]: 4.19 nM | koff [3]: 0.0193 s⁻¹ | kon [3]: 5e+06 M⁻¹ s⁻¹
B14: domain 11^AB5 P1597S (receptor)
chain: MKSNEHDDCQVTNPSTGHLFDLSSLSGRAGFTAAYAKGWGVYMSICGENENCPPGVGACFGQTRISVGKANKRLRYVDQVLQLVYKDGSSCPSKSGLSYKSVISFVCRPEAGPTNRPMLISLDKQTCTLFFSWHTPLACEQATECSV
notes: See m5

From US20180237497A1 (CANCER RESEARCH TECHNOLOGY, published 2018)
